The results in this text go back to US12723248 (Amgen, dated 2026).

The target of the experiment is T1, human asialoglycoprotein receptor 1 (ASGR1) (human, UniProt P07306 1-291).
T1 construct: whole, on cells; The cells were fixed in formaldehyde before staining; also called hASGR1; HL-1
T1 sequence (looked up): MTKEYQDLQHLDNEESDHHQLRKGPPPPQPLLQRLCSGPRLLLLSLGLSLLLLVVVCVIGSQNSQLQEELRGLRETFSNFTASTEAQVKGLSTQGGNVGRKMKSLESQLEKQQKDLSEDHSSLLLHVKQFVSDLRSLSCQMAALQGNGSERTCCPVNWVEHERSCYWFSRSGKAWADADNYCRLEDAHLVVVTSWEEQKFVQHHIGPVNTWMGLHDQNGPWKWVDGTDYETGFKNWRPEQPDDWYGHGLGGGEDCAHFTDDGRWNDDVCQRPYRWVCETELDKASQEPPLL
Nature of the experiment: immunofluorescence on formaldehyde-fixed Hep3B or HepG2 cells, Alexa488 anti-human IgG secondary, high-content imaging. The procedure:
The siRNA molecules in Tier 1 and Tier 2 screening sets were synthesized without chemical modifications. Each siRNA molecule was comprised of a 21 nucleotide sense strand and 21 nucleotide antisense strand that hybridized to form a duplex region of 19 base pairs with a 2 nucleotide overhang at the 3' end of each strand. The efficacy of each of the siRNA molecules in reducing ASGR1 expression was assessed using a 384-well format in vitro immunoassay, which quantifies levels of ASGR1 protein on the cell surface of Hep3B or HepG2 cells.
Transfection complexes of the siRNA molecules and RNAiMax transfection reagent (Life Technologies) in EMEM media (ATCC 30-2003) were prepared in 384-well plates in accordance with manufacturer's recommendations. Human hepatocellular carcinoma Hep3B (ATCC HB-8064) or HepG2 (ATCC HB-8065) cells in EMEM media supplemented with 10% fetal bovine serum and 1% antibiotic/antimycotic were added to each well. Cells were incubated for 4 days at 37° C. and 5% CO_2. […] Data was analyzed using Columbus image analysis software and GeneData Screener software to quantify several measures of ASGR1 protein levels, cell count, and cell morphology on a per cell and per well basis.

B1: anti-ASGR1 primary antibody (Amgen clone 7E11) (antibody, human IgG1, kappa, N297G, V domains shown)
VH: QVQLVESGGGVVQPGRSLRLSCAASGFTFSSFGMHWVRQAPGKGLEWVAIIWHDGSNKYYADSVKGRFTISRDNSKNTLYLQMSSLRAEDTAVYYCARDLSMGGMDVWGQGTTVTVSS
VL: DIQMTQSPSSLSASVGDRVTIACRASQNIISYLNWYQQKPGKAPKFLIYTASSLQSGVPSRFSGSGSGTDFTLTISSLQPEDFAIYYCQQTYSTPLTFGGGTKVEIKR
notes: It was used as a staining reagent and detected with an Alexa488-conjugated anti-human IgG secondary antibody
Regarding B1, the binding result was “binds”.
